Here are results for 51 variants from the RNAGym collection of RNA variant scans (doi:10.1101/gr.219683.116).

To fix the notation:
B1: mRNA-splicing (parent)
chain: AGUUGCUGCUGGGAGCUCCAGCACAGUGAAAUGGACAGAAGGGCAGAGCAA

The variants in the data set derive from B1. Put plainly: exon inclusion enrichment index; higher = more inclusion; WT1 exon 5 minigene, HEK293.
For the variant AGCAGCUGCUGGGAGCUCCAGCACAGUGAAAUGGACAGAAGGGCAGAGCAA, the “exon inclusion enrichment index” value stood at 0.0261.
Turning to AGUUAGGGAUGGGAGCAUCAGCACAGUGAAAUGGACAGAAGGGCAGAGCAA, the “exon inclusion enrichment index” value is 0.00863.
Turning to AGUUCACACAGGGAGCUCCAGCACAGUGAAAUGGACAGAAGGACAGAGCAA, the “exon inclusion enrichment index” value came out at 0.595.
AGCAACCACCGGGAGCUCCAGCACAGUGAAAUGGACAGAAGGGCAGAGCAA: the “exon inclusion enrichment index” value amounted to 2.12.
In the case of AGUUGAAGAAGGGAGCUCCAGCACAGUGAAAUGGACAGAAGGGCCGAGCAA it was 0.979.
As for AGUUGAGCACGGGAGCUCCAGCACAGUGAAAUGGACAGAAGGGCAGAGCAA, the “exon inclusion enrichment index” value came to 0.907.
As for AGUUAUAUAUGGGACUUCCAGCACAGUGAAAUGGACAGAAGGGCAGAGCAA, the “exon inclusion enrichment index” value was found to be 0.0353.
With AGUUACCACCGGGAGCUCCAGCACAGUGAAAUGGACAGACCGGCAGAGCAA, the “exon inclusion enrichment index” value is 3.47.
As to AGUCACUGCUGGGAGCUCCAGCACAGUGAAAUGGACAGAAGGGCAGAGCAA, the “exon inclusion enrichment index” value was 0.0447.
The value for AGUUUCGGAUGGGAGCUCCAGCACAGUGAAAUGGACAGAAGGGCAGAGCAA was 2.09; that for AGUUGAAGAAGGGAGCUCCAGCACAGUGAUAUGGACAGAAGGGCAGAGCAA was 0.433.
In the case of AGUUCUUCUCGGGAGCUCCAGCACAGUUGAAUGGACAGAAGGGCAGAGCAA it was 1.84.
Turning to AGUUGAAGAAGGGAGCUCCAGCACAGUGAAAUGAACAGAAGGGCAGAGCAA, the “exon inclusion enrichment index” value is 0.344.
For AGUUGAAGAAGGGAGCUCCAGCACAGCCAAAUGGACAGAAGGGCAGAGCAA, the “exon inclusion enrichment index” value worked out at 1.36.
The value for AGUUGACGACGGGAGCUCCAGCACAGUGAAAUGGACAGAAGAACAGAGCAA was 4.69; that for AAUUAGGGAUGGGAGCUCCAGCACAGUGAAAUGGACAGAAGGGCAGAGCAA was 0.0189; that for AGUUGCUGCUGGGAGCUCCAGCACAGAUAAAUGGACAGAAGGGCAGAGCAA was 0.0261.
In the case of AGUUACCACAAGGAGCUCCAGCACAGUGAAAUGGACAGAAGGGCAGAGCAA it was 1.07.
Consider AGUUCGCGCCGGGAGCUCCAGCACAGUGAAAUGGACAGAAGGUGAGAGCAA, for which the “exon inclusion enrichment index” value turned out to be 0.713.
As for AGUUCGCGCCGGGAGCUCUGGCACAGUGAAAUGGACAGAAGGGCAGAGCAA, the “exon inclusion enrichment index” value amounted to 1.14.
As to AGUUGGCGCCGGGAGCUCCAGCACAGUGAAAUGGACAGAAGGGCAGAGCAA, the “exon inclusion enrichment index” value was found to be 3.22.
On to AGUUGCUGCUGGGAGCUCCAGCACAUGGAAAUGGACAGAAGGGCAGAGCAA, for which the “exon inclusion enrichment index” value was 0.394.
AGUCACUUUUGGGAGCUCCAGCACAGUGAAAUGGACAGAAGGGCAGAGCAA: the “exon inclusion enrichment index” value came out at 0.77.
In the case of AGUUACCACCGGGAGCUCCAGCACAGUGAAGUGGACAGAAGGGCAGAGCAA it was 2.95; in that of AGUUGACGACGGGAGCUCCAGCACAGUGAAAUGGAUGGAAGGGCAGAGCAA, 2.91.
As for AGUUGUUGCUGGGAGCUCCAGCACAGUGAAAUGGACAGAAGGGCAGAGCAA, the “exon inclusion enrichment index” value is 0.0511.
Regarding AGUUACCACCGGGAGCUCCAGUCCAGUGAAAUGGACAGAAGGGCAGAGCAA, the “exon inclusion enrichment index” value is 1.42.
Consider AGUUGAAGAAGGGAGCUCCAGCACAGUGAACAGGACAGAAGGGCAGAGCAA, for which the “exon inclusion enrichment index” value was found to be 0.428.
The value for AGUUUCUUUUGGGAGCUCCCUCACAGUGAAAUGGACAGAAGGGCAGAGCAA was 0.0336; that for AGUUUCUUUUGCGAGCUCCAGCACAGUGAAAUGGACAGAAGGGCAGAGCAA was 0.0449.
The value for AGUUGAAGAAGGGAGCUCCAAGACAGUGAAAUGGACAGAAGGGCAGAGCAA was 0.568; that for AGUUCGCGCCGGGAGCGCCAGCACAGUGAAAUGGACAGAAGGGCAGAGCAA was 1.86.
On to AGUUGAAGAAGGGAGCUCCAGCACAGUGAAAUGGACAGAGUGGCAGAGCAA, for which the “exon inclusion enrichment index” value stood at 0.576.
For AGUUCGCGCCGGGAGCUCCAGCACAGUGAAAUGGACAAUAGGGCAGAGCAA, the “exon inclusion enrichment index” value stood at 0.365.
Turning to AGUUGCUGCUGGGAGCUCCAGCACAGUGAAAUGGACAGAAGUACAGAGCAA, the “exon inclusion enrichment index” value was 0.492.
AGUUGAAGAAGGGAGCUCCAGCACAGUGAUGUGGACAGAAGGGCAGAGCAA: the “exon inclusion enrichment index” value is 0.653.
For AGUUGACGACGGGAGCUCCAGCACAGUGAAAUGGACAGAAUCGCAGAGCAA, the “exon inclusion enrichment index” value stood at 3.58.
Take AGUUGACGACGGGAGCUCCAGCACAGUGAAAUGGACAGAAUUGCAGAGCAA: the “exon inclusion enrichment index” value came to 2.65.
In the case of AGUUUCUUUUGGGAGCUCCAGCACAGUGAAAUGGACAGAAGUGCAGAGCAA it was 0.227.
Consider AGUUGACCAAGGGAGCUCCAGCACAGUGAAAUGGACAGAAGGGCAGAGCAA, for which the “exon inclusion enrichment index” value amounted to 0.587.
For the variant AGUUCUUCUCGGGAGCUCCAGCACAGUGAAAUGGACAGAAGCUCAGAGCAA, the “exon inclusion enrichment index” value amounted to 2.87.
In the case of AGUUGAAGAAGGGAGCUCCAGCACAGUGAAAUGGAAUGAAGGGCAGAGCAA it was 0.229; in that of AGUUAGGGAUGGGAGCUCCAUUACAGUGAAAUGGACAGAAGGGCAGAGCAA, 0.00236.
For the variant AGUUGAAGAAGGGAGAUCCAGCACAGUGAAAUGGACAGAAGGGCAGAGCAA, the “exon inclusion enrichment index” value was 0.669.
Consider AGUUCUUCUCGGGAGCUCCAGCACAGUGAGAUGGACAGAAGGGCAGAGCAA, for which the “exon inclusion enrichment index” value worked out at 2.12.
In the case of AGUUACCACCGGGAGCUCCAGCACAGUGAAAUGGACAGAAGGGCAGCGCAA it was 2.83; in that of AGUUGAAGAGUGGAGCUCCAGCACAGUGAAAUGGACAGAAGGGCAGAGCAA, 1.14.
As for AGUUCACACAGGAUGCUCCAGCACAGUGAAAUGGACAGAAGGGCAGAGCAA, the “exon inclusion enrichment index” value is 0.645.
Regarding AGUUGAAGAAGGGAGCUCCAGCACAGUGAAAUGGACACUAGGGCAGAGCAA, the “exon inclusion enrichment index” value turned out to be 0.0576.
In the case of AGUUGACGACCAGAGCUCCAGCACAGUGAAAUGGACAGAAGGGCAGAGCAA it was 2.17; in that of AGUUCACACAGGUGGCUCCAGCACAGUGAAAUGGACAGAAGGGCAGAGCAA, 0.0515.
